{"source": "paper PMC3353419", "about": "(2013)", "binders": {"B1": {"name": "Hemoglobin (protein)", "chain 1": "not shown", "chain 2": "not shown", "modifications": "dextran (10 kDa)-linker at beta Cys93"}}, "target": "T1, Haptoglobin (Homo sapiens, UniProt P00738)", "T1 chain": "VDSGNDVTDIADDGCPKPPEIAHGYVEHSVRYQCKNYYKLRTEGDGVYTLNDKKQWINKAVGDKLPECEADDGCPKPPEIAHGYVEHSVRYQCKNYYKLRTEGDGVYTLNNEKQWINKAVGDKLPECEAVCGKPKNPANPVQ", "assay": "SPR"}
{"binder": "B1", "values": [{"measurement": "Kd", "value": 0.823, "unit": "nM"}]}
